B1: KCNG1 (parent)
chain: AVNLSVSTLPSLREEEEQVRAHAP
B2: JUNB (parent)
chain: FVKALDDLHKMNHVTPPNVSLGAT

Variants of: B1
Assay: protein stability index of a GFP-peptide fusion (GPS, HEK-293T) (PSI 1-6); higher = more stable
Details: c terminus: a fixed tail appended
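Note: lentivirally expressed fusions sorted by FACS into six bins by GFP to DsRed ratio, PSI derived from sequencing read proportions per bin multiplied by bin number.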

Protein stability index, by site and new letter:
P10: H 4.63 | A 4.59 | C 4.35 | W 4.05 | G 4.71 | S 4.62 | K 4.74 | M 4.28 | F 3.5 | L 4.06 | V 4.61 | R 4.29 | Q 5.05 | T 4.49 | I 3.67 | Y 4.03 | D 5.06 | N 4.7 | E 5.04
S11: G 3.95 | M 4.54 | V 4.83 | Y 4.54 | A 5.43 | R 4.88 | I 4.79 | F 4.45 | Q 5.01 | L 4.75 | T 4.84 | N 4.95 | K 5.13 | P 4.93 | E 5.14 | D 5.02 | W 4.35 | C 4.3 | H 5.07
N3: P 5.25 | T 4.75 | E 5.73 | K 4.43 | A 4.75 | F 3.02 | Y 3.66 | C 4.45 | R 4.83 | I 3.05 | M 4.37 | W 3.66 | L 2.41 | G 5.03 | H 4.72 | S 4.87 | Q 4.77 | V 3.06 | D 5.26
L9: M 4.63 | Q 4.88 | Y 4.47 | H 4.81 | V 4.73 | W 3.81 | I 4.14 | A 5.36 | F 5.08 | E 4.67 | T 5.08 | S 5.09 | C 4.66 | K 5.19 | P 5.26 | N 5.42 | D 5.49 | R 5.28 | G 4.83
L12: F 4.59 | A 5 | G 5.21 | M 4.88 | T 5.38 | E 5.62 | C 4.42 | Y 4.77 | S 5.33 | W 4.13 | K 4.67 | R 5.35 | N 5.11 | H 5.17 | I 4.79 | P 5.13 | Q 5.19 | D 5.41 | V 4.81
R13: G 4.55 | V 4.81 | P 5.67 | A 5 | C 4.99 | L 4.77 | K 4.85 | E 5.25 | M 5.03 | F 4.78 | S 5.2 | N 5.3 | I 4.68 | T 5.25 | Q 4.91 | D 5.15 | W 4.77 | H 4.99
L4: K 5.24 | S 5.05 | R 5.03 | I 4.8 | V 5.01 | Y 4.98 | N 5.55 | M 5.05 | H 5.72 | A 4.86 | P 5.32 | D 5.58 | Q 5.44 | E 5.73 | T 4.9 | W 4.45 | C 4.88 | F 4.51 | G 5.24
S7: H 5.03 | F 4.11 | R 4.93 | Y 4.19 | W 3.68 | A 4.75 | K 4.94 | Q 4.91 | E 4.47 | C 4.41 | M 4.53 | P 5.09 | D 4.8 | V 4.71 | G 5.18 | N 5.02 | I 3.67 | T 4.95 | L 3.62
S5: I 3.86 | V 4.1 | L 3.82 | C 4.65 | Y 4.59 | H 4.71 | M 4.49 | P 5.36 | G 4.93 | T 4.59 | D 5.24 | K 4.47 | N 4.03 | E 5.33 | F 3.79 | W 3.31 | Q 4.2 | A 5.48 | R 3.29
A1: L 4.14 | N 5.02 | S 4.82 | Q 4.28 | G 4.96 | T 5.46 | I 4.48 | R 5.31 | K 5.28 | Y 2.47 | M 4.61 | F 2.57 | H 5.12 | D 5.52 | P 5.12 | V 4.39 | C 5 | W 3.81 | E 4.75
V2: F 4.83 | E 5.39 | L 5.04 | K 5.63 | W 4.1 | H 5.54 | M 4.79 | R 5.04 | D 5.64 | I 4.89 | N 5.59 | C 4.98 | Q 5.33 | S 5.41 | T 5.23 | P 5.57 | A 5.6 | Y 4.93 | G 5.46
V6: W 4.53 | G 4.8 | A 5.14 | I 5.08 | M 4.98 | R 5.02 | L 4.69 | H 5.3 | N 5.18 | K 5.01 | E 5.58 | F 4.59 | T 5.08 | P 5.45 | D 5.34 | Y 4.69 | S 5.18 | Q 5.24 | C 4.75
T8: W 3.11 | V 4.45 | F 3.42 | E 4.95 | A 5.28 | L 4.55 | I 4.12 | S 4.82 | Y 4.19 | H 4.83 | M 4.53 | Q 5.07 | N 5.14 | P 5.14 | C 4.67 | D 5.36 | K 4.61 | R 4.94 | G 5.15

Variants of: B2
Assay: as above
Details: c terminus: a fixed tail appended

Protein stability index: each site, then its substitutions
S20: L 1.56 | I 1.11 | E 2.16 | T 2.09 | D 1.72 | A 3.1
A23: G 1.27 | N 2.02 | V 2
T15: Y 1.67 | M 2.3 | S 1.92 | N 1.84
N12: E 2.01 | Y 3.14 | P 2.08
H9: K 1.9 | Y 1.54 | N 1.72 | W 4.16 | C 2.04
M11: C 2.31 | E 3.21 | T 2.06
N18: I 1.4 | V 1.63 | R 3.67 | K 1.75 | T 1.47
L21: D 2.51 | M 2.16 | V 1.65 | F 2.09
D6: C 4.16 | V 2.59 | E 1.97
G22: C 2.47 | N 2.28
L5: Y 2.82 | H 1.9 | A 2.23 | F 2.1
V19: F 1.43 | C 2.11
K10: S 2.11 | D 2.22
P17: I 1.81 | T 1.62
F1: I 2.84 | W 2.51 | K 3.92 | M 3.6 | N 3.95 | Y 1.54
L8: R 1.89 | C 1.77 | N 1.93
H13: W 2.66 | C 1.67 | L 2.56 | R 2.4
D7: S 1.47 | Y 2.2 | V 2.27 | Q 1.7
A4: V 1.77 | I 2.12
V14: L 1.88 | R 1.84 | A 2.24 | S 1.43 | T 1.82
K3: V 1.96 | M 1.74 | E 2.44
T24: G 1.56 | W 1.54
V2: S 4.07 | A 2.96 | G 3.5 | T 3.33 | N 4.52 | D 4.22 | Q 3.18
P16: T 2.34 | S 1.78 | H 1.81 | I 1.58
